For 5 molecules, binding result and Kd results are on record in patent US20220153844A1 (INVENRA, published 2022).

Experiment [1] deals with T1, CTLA4 (antigen of Examples 10 and 13) (UniProt P16410 36-161, limits assumed).
T1 construct: Immobilised antigen in the Octet assay
The experiment in a line: BLI (Octet); antigen immobilised, B-Body as analyte. The text has this: In each instance, the antigen is immobilized and the B-Body is the analyte.

The target of experiment [2] is T2, muCD25 transiently expressed on Expi293 cells (Expi293-muCD25) (mouse, UniProt P01590 22-268).
T2 construct: whole, on cells; also called murine CD25; single positive CD25+ cells
T2 sequence (looked up): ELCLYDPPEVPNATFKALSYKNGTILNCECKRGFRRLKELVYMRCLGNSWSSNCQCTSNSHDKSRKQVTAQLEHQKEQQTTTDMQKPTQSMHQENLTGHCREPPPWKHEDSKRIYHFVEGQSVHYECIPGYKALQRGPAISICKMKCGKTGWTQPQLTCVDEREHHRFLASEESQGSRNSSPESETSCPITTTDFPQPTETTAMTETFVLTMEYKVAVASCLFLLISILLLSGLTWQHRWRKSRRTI
The experiment in a line: flow cytometry, biotinylated mouse IL-2 on Expi293 muCD25 cells, streptavidin-PE.

For experiment [3], the target named is T3, mouse CTLA4 (target of muSNIPER and anti-muCTLA4) (mouse, UniProt P09793 36-161, limits assumed, biotinylated in the blocking assay).
T3 construct: also called Target 2
Nature of the experiment: BLI, biotinylated mouse CTLA4 (B-mTarget2) on streptavidin sensor, then antibody or CD86 ligand.

The target of experiment [4] is T4, huCTLA4 (biotinylated human CTLA4 for BLI) (human, UniProt P16410 36-161, limits assumed, biotinylated).
T4 construct: also called Target 2
Nature of the experiment: BLI steady state analysis; biotinylated antigen on streptavidin sensor, bispecific 2 µM to 31.25 nM.

Experiment [5] deals with T5, mouse CD25 + CTLA4 together (Table 29) (mouse, UniProt P01590 22-236; P09793 36-161, limits assumed).
T5 construct: the format is not described
The experiment in a line: bivalent affinity to both CD25 and CTLA4, summary in Table 29; bivalent, CD25 + CTLA4 together.

Experiment [6] concerns the target T6, mouse CD25 (target of muSNIPER in Table 29) (mouse, UniProt P01590 22-236, limits assumed).
T6 construct: also called muCD25
T6 sequence (looked up): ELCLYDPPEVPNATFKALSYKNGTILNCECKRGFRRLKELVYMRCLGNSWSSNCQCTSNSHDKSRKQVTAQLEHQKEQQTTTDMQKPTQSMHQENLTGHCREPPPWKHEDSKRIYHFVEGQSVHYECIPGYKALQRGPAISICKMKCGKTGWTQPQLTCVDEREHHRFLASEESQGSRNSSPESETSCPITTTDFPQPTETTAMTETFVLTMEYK
The experiment in a line: monovalent affinity, summary in Table 29 (text: biolayer interferometry; data not shown); monovalent, CD25 alone.

Experiment [7] concerns the target T3, mouse CTLA4 (target of muSNIPER and …). The experiment in a line: monovalent affinity, summary in Table 29 (text: biolayer interferometry; data not shown); monovalent, CTLA4 alone.

T3 sequence (P09793 36-161 limits assumed): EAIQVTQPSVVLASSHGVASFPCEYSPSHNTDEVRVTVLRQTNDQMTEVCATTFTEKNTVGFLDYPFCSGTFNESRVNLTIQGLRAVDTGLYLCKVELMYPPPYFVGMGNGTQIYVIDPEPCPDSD
T4 sequence (P16410 36-161 limits assumed): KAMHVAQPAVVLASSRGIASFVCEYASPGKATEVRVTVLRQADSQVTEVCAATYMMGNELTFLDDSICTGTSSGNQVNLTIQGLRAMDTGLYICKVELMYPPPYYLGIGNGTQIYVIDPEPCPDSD
T1 sequence (P16410 36-161 limits assumed): as above
T5 sequence (P09793 36-161 limits assumed, one chain of several): as the sequence (P09793 36-161 limits assumed) above

B1: bivalent bispecific B-Body “BC1” (bispecific antibody)
chain 1: not shown
chain 2: EVQLVESGGGLVQPGGSLRLSCAASGFTFSDYDIHWVRQAPGKGLEWVGDITPYDGTTNYADSVKGRFTISADTSKNTAYLQMNSLRAEDTAVYYCARLVGEIATGFDYWGQGTLVTVSSASPREPQVYTDPPSRDELTKNQVSLTCLVKGFYPSDIAVEWESNGQPENNYKTTPPVLDSDGSFFLYSKLTVDKSRWQQGNVFSCSVMHEALHNHYTQKSLSLSGEC
chain 3: not shown
chain 4: QVQLVESGGGVVQPGRSLRLDCKASGITFSNSGMHWVRQAPGKGLEWVAVIWYDGSKRYYADSVKGRFTISRDNSKNTLFLQMNSLRAEDTAVYYCATNDDYWGQGTLVTVSSASTKGPSVFPLAPSSKSTSGGTAALGCLVKDYFPEPVTVSWNSGALTSGVHTFPAVLQSSGLYSLSSVVTVPSSSLGTQTYICNVNHKPSNTKVDKKVEPPKSC
notes: A:F site specific for Antigen A, H:L site (nivolumab) specific for human PD1
In the case of B1, the binding result in experiment [1] is on record as “no binding”.

B2: biotinylated mouse recombinant IL-2 ligand (ligand, UniProt P04351 21-169, looked up)
chain: APTSSSTSSSTAEAQQQQQQQQQQQQHLEQLLMDLQELLSRMENYRNLKLPRMLTFKFYLPKQATELKDLQCLEDELGPLRHVLDLTQSKSFQLEDAENFISNIRVTVVKLKGSDNTFECQFDDESATVVDFLRRWIAFCQSIISTSPQ
modifications: biotinylated
As for B2, the binding result in experiment [2] is given as “binds”.

B3: anti-muCTLA4, parental bivalent monospecific monoclonal antibody (antibody, IgG1, V domains shown)
VH: EVQLVESGGGLVQPGGSLRLSCAASGFTFSSYYIHWVRQAPGKGLEWVASISSYADYTDYADSVKGRFTISADTSKNTAYLQMNSLRAEDTAVYYCARQSYYGLDYWGQGTLVTVSS
VL: DIQMTQSPSSLSASVGDRVTITCRASQSVSSAVAWYQQKPGKAPKLLIYSASSLYSGVPSRFSGSRSGTDFTLTISSLQPEDFATYYCQQLSRGPSTFGQGTKVEIK
notes: Parent antibodies of the discovery campaign are in a human full-length IgG1 format; copies: 2 + 2
Take B3: in experiment [3], the binding result was “binds”.

B4: BC1 1×1 B-Body huSNIPER 19×8 binding molecule (bispecific antibody)
chain 1: not shown
chain 2: EVQLVESGGGLVQPGGSLRLSCAASGFTFSGYWIHWVRQAPGKGLEWVAAITSRDSYTYYADSVKGRFTISADTSKNTAYLQMNSLRAEDTAVYYCARGSYLGSAFDYWGQGTLVTVSSASPREPQVYTDPPSRDELTKNQVSLTCLVKGFYPSDIAVEWESNGQPENNYKTTPPVLDSDGSFFLYSKLTVDKSRWQQGNVFSCSVMHEALHNHYTQKSLSLSGEC
chain 3: SDIQMTQSPSSLSASVGDRVTITCRASQSVSSAVAWYQQKPGKAPKLLIYSASSLYSGVPSRFSGSRSGTDFTLTISSLQPEDFATYYCQQYSSQPATFGQGTKVEIKRTVAAPSVFIFPPSDEQLKSGTASVVCLLNNFYPREAKVQWKVDNALQSGNSQESVTEQDSKDSTYSLSSTLTLSKADYEKHKVYACEVTHQGLSSPVTKSFNRGECDKTHTCPPCPAPELLGGPSVFLFPPKPKDTLMISRTPEVTCVVVDVSHEDPEVKFNWYVDGVEVHNAKTKPREEQYNSTYRVVSVLTVLHQDWLNGKEYKCKVSNKALPAPIEKTISKAKGQPREPQVCTLPPSREEMTKNQVSLSCAVKGFYPSDIAVEWESNGQPENNYKTTPPVLDSDGSFFLVSKLTVDKSRWQQGNVFSCSVMHEALHNHYTQKSLSLSPGK
chain 4: EVQLVESGGGLVQPGGSLRLSCAASGFTFSSYYIHWVRQAPGKGLEWVAKIQPKGGYTYYADSVKGRFTISADTSKNTAYLQMNSLRAEDTAVYYCARSYYYRPHAFDYWGQGTLVTVSSASTKGPSVFPLAPSSKSTSGGTAALGCLVKDYFPEPVTVSWNSGALTSGVHTFPAVLQSSGLYSLSSVVTVPSSSLGTQTYICNVNHKPSNTKVDKKVEPPKSC
In experiment [4], B4 had a Kd of 19 nM.

B5: Mouse Surrogate SNIPER antibody (muSNIPER) (bispecific antibody)
chain 1: not shown
chain 2: EVQLVESGGGLVQPGGSLRLSCAASGFTFSSYYIHWVRQAPGKGLEWVASISSYADYTDYADSVKGRFTISADTSKNTAYLQMNSLRAEDTAVYYCARQSYYGLDYWGQGTLVTVSSASPREPQVYTDPPSRDELTKNQVSLTCLVKGFYPSDIAVEWESNGQPENNYKTTPPVLDSDGSFFLYSKLTVDKSRWQQGNVFSCSVMHEALHNHYTQKSLSLSGEC
chain 3: DIQMTQSPSSLSASVGDRVTITCRASQSVSSAVAWYQQKPGKAPKLLIYSASSLYSGVPSRFSGSRSGTDFTLTISSLQPEDFATYYCQQWYTSPLTFGQGTKVEIKRTVAAPSVFIFPPSDEQLKSGTASVVCLLNNFYPREAKVQWKVDNALQSGNSQESVTEQDSKDSTYSLSSTLTLSKADYEKHKVYACEVTHQGLSSPVTKSFNRGECDKTHTCPPCPAPELLGGPSVFLFPPKPKDTLMISRTPEVTCVVVDVSHEDPEVKFNWYVDGVEVHNAKTKPREEQYNSTYRVVSVLTVLHQDWLNGKEYKCKVSNKALPAPIEKTISKAKGQPREPQVCTLPPSREEMTKNQVSLSCAVKGFYPSDIAVEWESNGQPENNYKTTPPVLDSDGSFFLVSKLTVDKSRWQQGNVFSCSVMHEALHNHYTQKSLSLSPGK
chain 4: EVQLVESGGGLVQPGGSLRLSCAASGFTFRQYFIHWVRQAPGKGLEWVAAIHPDSDFTYYADSVKGRFTISADTSKNTAYLQMNSLRAEDTAVYYCARGGVAIESGYALDYWGQGTLVTVSSASTKGPSVFPLAPSSKSTSGGTAALGCLVKDYFPEPVTVSWNSGALTSGVHTFPAVLQSSGLYSLSSVVTVPSSSLGTQTYICNVNHKPSNTKVDKKVEPPKSC
notes: Chains 1 and 2 form the CTLA4 arm, chains 3 and 4 the CD25 arm; BC1 scaffold; also called mSNIPER; muSINPER
Regarding B5, the Kd in experiment [5] was < 5 nM; in experiment [6], > 300 nM; in experiment [7], > 100 nM.
